Assay results: the supplement of paper PMC9732359
± gives the uncertainty stated by the source.

Experiment: protein stability index of a GFP-peptide fusion (yeast GPS) (PSI 1-4); higher = more stable; sorted into four equal gates, so the index is relative within each strain
Summary of the method: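 Sequencing reads from sorted gates were used to score each peptide. The library consisted of tiled 17-residue yeast protein peptides fused downstream of GFP on a Cherry-expressing plasmid, pooled and carried in yeast. Mid-log cultures in leucine-free medium were split into four equal gates by GFP/Cherry ratio, and each gate's plasmids were PCR-amplified and Illumina-sequenced. The protein stability index adds up, over all gates, the read frequency multiplied by the gate number.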

TNQLKSLKGLQSKLKDV [RPN8]
protein stability index (pdr5∆): 1.59 ± 0.23 | protein stability index (san1∆): 2.62 ± 0.19 | protein stability index (ubr1∆): 1.36 ± 0.13

IDDFTTRLWGSVYYHKG [SNU114]
protein stability index (doa10∆): 3.06 ± 0.24 | protein stability index (pdr5∆): 3.41 ± 0.17 | protein stability index (ubr1∆): 3.31 ± 0.13

TNNGNDDNETENPNFWR [GRR1]
protein stability index (doa10∆): 2.74 ± 0.066 | protein stability index (pdr5∆): 3.16 ± 0.05 | protein stability index (san1∆): 2.37 ± 0.053 | protein stability index (ubr1∆): 2.75 ± 0.041

NNLEKYPFRYKTWLRNQ [RTT102]
protein stability index (doa10∆): 3.37 ± 0.077 | protein stability index (pdr5∆): 3.39 ± 0.053 | protein stability index (san1∆): 3.32 ± 0.061 | protein stability index (ubr1∆): 3.38 ± 0.067

LEDGDVVLFNRQPSLHR [RPO31]
protein stability index (doa10∆): 2.42 ± 0.072 | protein stability index (pdr5∆): 2.67 ± 0.062 | protein stability index (san1∆): 2.47 ± 0.072 | protein stability index (ubr1∆): 2.08 ± 0.051

PITNKERSLAVKYINFG [RPC31]
protein stability index (doa10∆): 3.02 ± 0.14 | protein stability index (pdr5∆): 3.11 ± 0.16 | protein stability index (san1∆): 2.65 ± 0.084 | protein stability index (ubr1∆): 2.48 ± 0.18

NFQDLSYLSETLISRIS [YML103C/NUP188]
protein stability index (doa10∆): 2.38 ± 0.082 | protein stability index (pdr5∆): 2.51 ± 0.079 | protein stability index (san1∆): 2.04 ± 0.093 | protein stability index (ubr1∆): 2.32 ± 0.074

EENPIMQTALRRLPEDE [QCR7]
protein stability index (doa10∆): 3.45 ± 0.28 | protein stability index (pdr5∆): 3.52 ± 0.28 | protein stability index (ubr1∆): 3.39 ± 0.18

GNESVKPQFENHVKQFY [MED11]
protein stability index (doa10∆): 2.83 ± 0.19 | protein stability index (pdr5∆): 2.57 ± 0.22

GLQDEIMKIGGIKLQMQ [SMC4]
protein stability index (doa10∆): 2.8 ± 0.071 | protein stability index (pdr5∆): 3.13 ± 0.053 | protein stability index (san1∆): 3.02 ± 0.058 | protein stability index (ubr1∆): 3.17 ± 0.089

ERIINVGVIGPLHSGKT [SNU114]
protein stability index (doa10∆): 2.87 ± 0.12 | protein stability index (pdr5∆): 2.57 ± 0.11 | protein stability index (ubr1∆): 2.94 ± 0.09

GLDKFSNIDIRVRVTGG [RPS16A]
protein stability index (doa10∆): 1.51 ± 0.082 | protein stability index (pdr5∆): 1.74 ± 0.072 | protein stability index (san1∆): 1.52 ± 0.22 | protein stability index (ubr1∆): 1.54 ± 0.055

DRIYMLFHFEEDEGEEL [PRP8]
protein stability index (doa10∆): 1.64 ± 0.065 | protein stability index (pdr5∆): 1.49 ± 0.064 | protein stability index (san1∆): 1.5 ± 0.17 | protein stability index (ubr1∆): 1.93 ± 0.057

SSTGGGLFGNKPALGSL [YGR119C/NUP57]
protein stability index (doa10∆): 3.33 ± 0.1 | protein stability index (pdr5∆): 3.44 ± 0.088 | protein stability index (san1∆): 3.4 ± 0.048 | protein stability index (ubr1∆): 3.41 ± 0.056

QAESMKFKLLNGLAIRR [RPS3]
protein stability index (doa10∆): 1.69 ± 0.069 | protein stability index (pdr5∆): 2.3 ± 0.085 | protein stability index (san1∆): 1.48 ± 0.12 | protein stability index (ubr1∆): 2.58 ± 0.1

KNKYGEINSEDYDNKTK [SRP68]
protein stability index (doa10∆): 3.23 ± 0.094 | protein stability index (pdr5∆): 2.89 ± 0.16 | protein stability index (san1∆): 3.43 ± 0.06 | protein stability index (ubr1∆): 3.14 ± 0.084

SGKITDFIKFDAGKLVY [RPS4A]
protein stability index (doa10∆): 3.17 ± 0.066 | protein stability index (pdr5∆): 2.92 ± 0.061 | protein stability index (san1∆): 2.8 ± 0.06 | protein stability index (ubr1∆): 3 ± 0.064

EIILDFLQDKVQIKDVN [CSI1]
protein stability index (doa10∆): 3.12 ± 0.086 | protein stability index (pdr5∆): 2.83 ± 0.055 | protein stability index (san1∆): 2.36 ± 0.076 | protein stability index (ubr1∆): 3.17 ± 0.051

QASGITAGAAANALGGL [SSN3]
protein stability index (doa10∆): 2.56 ± 0.071 | protein stability index (pdr5∆): 1.91 ± 0.068 | protein stability index (san1∆): 2.13 ± 0.093 | protein stability index (ubr1∆): 2.02 ± 0.058

VIGLDSEHDKKRLSAAL [YML103C/NUP188]
protein stability index (doa10∆): 3.5 ± 0.23 | protein stability index (pdr5∆): 3.69 ± 0.19 | protein stability index (san1∆): 3.14 ± 0.13 | protein stability index (ubr1∆): 3.67 ± 0.14

QAAAKPSLEKSSFTFGS [YLR335W/NUP2]
protein stability index (doa10∆): 3.04 ± 0.1 | protein stability index (pdr5∆): 2.97 ± 0.1 | protein stability index (san1∆): 2.97 ± 0.18 | protein stability index (ubr1∆): 2.73 ± 0.075

MSGGGNHVAKGLMKLGT [SMC4]
protein stability index (pdr5∆): 3.56 ± 0.3

KTLKLARAPKYASKAVP [RPL25]
protein stability index (doa10∆): 2.29 ± 0.06 | protein stability index (pdr5∆): 2.31 ± 0.056 | protein stability index (san1∆): 2.53 ± 0.067 | protein stability index (ubr1∆): 2.19 ± 0.035

FHESGSQYSTMVNIGLH [RGR1]
protein stability index (doa10∆): 3.19 ± 0.12 | protein stability index (pdr5∆): 3.19 ± 0.11 | protein stability index (san1∆): 2.7 ± 0.18 | protein stability index (ubr1∆): 3.27 ± 0.14

LVQLSTMETKTLPEKKQ [SIR4]
protein stability index (doa10∆): 2.88 ± 0.063 | protein stability index (pdr5∆): 2.9 ± 0.069 | protein stability index (san1∆): 2.72 ± 0.052 | protein stability index (ubr1∆): 2.99 ± 0.059

VRKYDLNICRQCFREKA [RPS29B]
protein stability index (doa10∆): 2.12 ± 0.22 | protein stability index (pdr5∆): 2.67 ± 0.092 | protein stability index (san1∆): 2.02 ± 0.19 | protein stability index (ubr1∆): 2.49 ± 0.11

RRLHKVLRPFLLRRLKK [SNF2]
protein stability index (doa10∆): 2.09 ± 0.078 | protein stability index (pdr5∆): 2.53 ± 0.1 | protein stability index (san1∆): 1.89 ± 0.12 | protein stability index (ubr1∆): 2.53 ± 0.07

HFTSPIRRYCDVVAHRQ [DIS3]
protein stability index (doa10∆): 2.04 ± 0.082 | protein stability index (pdr5∆): 2.21 ± 0.066 | protein stability index (san1∆): 2.06 ± 0.1 | protein stability index (ubr1∆): 1.84 ± 0.073

LLDFNTALKQYEKELMG [RPN6]
protein stability index (doa10∆): 3.14 ± 0.25 | protein stability index (pdr5∆): 3.33 ± 0.19 | protein stability index (san1∆): 3.32 ± 0.25 | protein stability index (ubr1∆): 3.12 ± 0.13

ADLQGSEDHSFRKIKLR [RPS1A]
protein stability index (doa10∆): 3.17 ± 0.051 | protein stability index (pdr5∆): 3.13 ± 0.061 | protein stability index (san1∆): 3.06 ± 0.047 | protein stability index (ubr1∆): 3.15 ± 0.048

ELQKIWQIEEAGNSQIT [SRB5]
protein stability index (doa10∆): 2.77 ± 0.08 | protein stability index (pdr5∆): 3.04 ± 0.11 | protein stability index (san1∆): 3.08 ± 0.048 | protein stability index (ubr1∆): 3.05 ± 0.066

NNSDDEDVDDEELDITP [IRR1]
protein stability index (doa10∆): 3.25 ± 0.099 | protein stability index (pdr5∆): 3.46 ± 0.11 | protein stability index (san1∆): 3.58 ± 0.083 | protein stability index (ubr1∆): 3.31 ± 0.077

VAIGLNGKIWVKCEELS [RRP40]
protein stability index (doa10∆): 1.58 ± 0.2 | protein stability index (pdr5∆): 2.25 ± 0.24 | protein stability index (san1∆): 2.94 ± 0.16 | protein stability index (ubr1∆): 1.73 ± 0.1

QNYLKTYNEDIPVEILV [PRE9]
protein stability index (doa10∆): 2.79 ± 0.066 | protein stability index (pdr5∆): 2.05 ± 0.084 | protein stability index (san1∆): 2.76 ± 0.091 | protein stability index (ubr1∆): 2.38 ± 0.071

INIAQMSACVGQQSVEG [RPO21]
protein stability index (san1∆): 3.22 ± 0.17 | protein stability index (ubr1∆): 3.07 ± 0.1

LTKKEKKEANLFPEQQN [RPL6A]
protein stability index (doa10∆): 3.08 ± 0.072 | protein stability index (pdr5∆): 3.2 ± 0.072 | protein stability index (san1∆): 3.25 ± 0.06 | protein stability index (ubr1∆): 3.16 ± 0.048

GATVFVNHLLLFAREIA [DPB4]
protein stability index (doa10∆): 1.94 ± 0.046 | protein stability index (pdr5∆): 1.9 ± 0.04 | protein stability index (san1∆): 1.41 ± 0.087 | protein stability index (ubr1∆): 1.72 ± 0.039

RAKPVTNSSILLGKILP [RRP6]
protein stability index (doa10∆): 2.2 ± 0.074 | protein stability index (pdr5∆): 2.14 ± 0.077 | protein stability index (san1∆): 2.27 ± 0.12 | protein stability index (ubr1∆): 2.39 ± 0.13

TYANVLIPCKYLNRHAD [RPN7]
protein stability index (doa10∆): 1.1 ± 0.08 | protein stability index (pdr5∆): 1.25 ± 0.089 | protein stability index (san1∆): 1.18 ± 0.13 | protein stability index (ubr1∆): 1.19 ± 0.095

SKVYYNLGEYESAVKYA [RPN2]
protein stability index (doa10∆): 2.62 ± 0.16 | protein stability index (pdr5∆): 2.9 ± 0.093 | protein stability index (san1∆): 2.8 ± 0.084 | protein stability index (ubr1∆): 2.84 ± 0.056

HLVSNELEQLSSEALEA [RPL10]
protein stability index (doa10∆): 1.21 ± 0.053 | protein stability index (pdr5∆): 1.39 ± 0.042 | protein stability index (san1∆): 1.3 ± 0.14 | protein stability index (ubr1∆): 1.39 ± 0.031

NLQPASVINNYLREDQM [NUT1]
protein stability index (doa10∆): 2.61 ± 0.075 | protein stability index (pdr5∆): 3.08 ± 0.099 | protein stability index (san1∆): 2.82 ± 0.094 | protein stability index (ubr1∆): 2.93 ± 0.14

VSVPVSGQKTNRQVMHK [SIR3]
protein stability index (doa10∆): 2.58 ± 0.13 | protein stability index (pdr5∆): 3.27 ± 0.14 | protein stability index (san1∆): 3.05 ± 0.13 | protein stability index (ubr1∆): 2.86 ± 0.17

SQVEDFTRIFLPIYDSL [SIR3]
protein stability index (doa10∆): 2.67 ± 0.059 | protein stability index (pdr5∆): 2.64 ± 0.045 | protein stability index (san1∆): 2.49 ± 0.059 | protein stability index (ubr1∆): 2.36 ± 0.036

PKDSSSTFREWKNLVLK [YJR042W/NUP85]
protein stability index (doa10∆): 3.29 ± 0.11 | protein stability index (pdr5∆): 2.76 ± 0.12 | protein stability index (san1∆): 3 ± 0.065 | protein stability index (ubr1∆): 3.16 ± 0.088

AKLPGHKSLIRSISWAP [YGL100W/SEH1]
protein stability index (doa10∆): 2.74 ± 0.07 | protein stability index (pdr5∆): 2.3 ± 0.058 | protein stability index (san1∆): 2.2 ± 0.11 | protein stability index (ubr1∆): 2.54 ± 0.055

VSIRQNQYKLVFYQVTP [RPL22B]
protein stability index (doa10∆): 1.95 ± 0.087 | protein stability index (pdr5∆): 1.69 ± 0.051 | protein stability index (san1∆): 2.15 ± 0.06 | protein stability index (ubr1∆): 1.88 ± 0.064

KLIPKLYRYRFDPFQAV [ECM29]
protein stability index (doa10∆): 2.86 ± 0.14 | protein stability index (pdr5∆): 2.77 ± 0.14 | protein stability index (san1∆): 2.71 ± 0.11 | protein stability index (ubr1∆): 2.8 ± 0.063

AIFNNEFDSDDDDISDD [RPN4]
protein stability index (doa10∆): 3.12 ± 0.1 | protein stability index (pdr5∆): 2.16 ± 0.19 | protein stability index (ubr1∆): 3.19 ± 0.21
